We go through 2 molecules from US20210107983A1 (Boehringer Ingelheim, published 2021).

Assay [1] concerns the target T1, Cyno B7H6-His (cynomolgus monkey).
T1 construct: also called CyB7H6; cyB7-H6
T1 chain: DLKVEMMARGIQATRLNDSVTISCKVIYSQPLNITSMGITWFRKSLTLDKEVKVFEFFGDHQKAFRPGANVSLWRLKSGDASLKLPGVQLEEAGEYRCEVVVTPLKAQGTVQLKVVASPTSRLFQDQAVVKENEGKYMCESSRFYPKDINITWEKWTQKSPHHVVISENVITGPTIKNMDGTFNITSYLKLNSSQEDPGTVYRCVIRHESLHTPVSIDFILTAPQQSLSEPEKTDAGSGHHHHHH
The experiment in a line: ratio of SPR KDs cyno/human. The protocol: (§1) About 700 RU of the B7H6/CD3 binding protein was captured on flow cell 2 of the Protein A/G surface for 60 s at a flow rate of 10 μL/min. The analytes HuB7H6, CyB7H6 and HuB7H1 were injected across both flow cells over captured B7H6/CD3 binding protein for 300 s at a flow rate of 30 μL/min with a dissociation of 1200 s. The concentrations of HuB7H6 and CyB7H6 were 0 nM, 6.25 nM, 12.5 nM, 25 nM, 50 nM and 100 nM. The concentrations of HuB7H1 were 0 nM and 1 μM. The surface was regenerated by injecting 10 mM glycine-HCl, pH 1.5 for 20 s at a flow rate of 30 μL/min across both flow cells.
(§2) The reference flow cell 1 (interactions with sensor surface) and blank (HBS-EP+ or 0 nM analyte) were subtracted from the raw data.
(§3) The B7H6/CD3 binding protein analyte was injected horizontally over the immobilized surface for 300 s at a flow rate of 30 μL/min with a dissociation of 600 s. The concentrations of the B7H6/CD3 binding protein used were 0 nM, 1.2 nM, 3.7 nM, 11.1 nM, 33.3 nM and 100 nM.

In assay [2] the target is T2, chicken egg white lysozyme (chicken, UniProt P00698 19-147).
T2 construct: unrelated positively charged protein, amine-coupled to the chip; also called Lysozyme (positive)
T2 sequence (P00698 19-147): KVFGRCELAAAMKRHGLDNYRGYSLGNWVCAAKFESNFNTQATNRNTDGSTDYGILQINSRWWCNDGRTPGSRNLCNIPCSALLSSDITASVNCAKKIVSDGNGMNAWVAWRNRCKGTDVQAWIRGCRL
The experiment in a line: SPR, 1 µM binder over immobilized lysozyme. The protocol:
(§4) The experiment was performed on a Biacore® T200 SPR system (GE Healthcare Life Sciences). The dilution, surface preparation, and binding experiments were performed at 25° C. in 1×HBS-EP buffer prepared from 10×HBS-EP. The flow rate for both the immobilization protocol and binding experiment was at 5 μL/min.
(§5) To prepare the surface for the non-specific binding experiment, chicken egg white lysozyme and trypsin inhibitor from Glycine max soybean were coupled manually to a Biacore® series S CM5 sensor chip (GE Healthcare sciences) with the surface density of 3000-5000 RU using the amine coupling kit according to the manufacture instructions. Samples were prepared at 1 μM in 1×HBS-EP buffer. The samples were injected over activated surfaces with a 10 min association and 15 min dissociation. The data was collected using Biacore® T200 Control Software version 2.0.1 and analyzed using Biacore® T200 Evaluation Software version 3.0 (GE Healthcare Life Sciences).

In a further assay the target is T3, Human CD3 E+G HuFc-6xHis (human).
T3 construct: also called HuCD3E+G-hFc; huCD3
T3 sequence (chain, as listed by the source limits assumed): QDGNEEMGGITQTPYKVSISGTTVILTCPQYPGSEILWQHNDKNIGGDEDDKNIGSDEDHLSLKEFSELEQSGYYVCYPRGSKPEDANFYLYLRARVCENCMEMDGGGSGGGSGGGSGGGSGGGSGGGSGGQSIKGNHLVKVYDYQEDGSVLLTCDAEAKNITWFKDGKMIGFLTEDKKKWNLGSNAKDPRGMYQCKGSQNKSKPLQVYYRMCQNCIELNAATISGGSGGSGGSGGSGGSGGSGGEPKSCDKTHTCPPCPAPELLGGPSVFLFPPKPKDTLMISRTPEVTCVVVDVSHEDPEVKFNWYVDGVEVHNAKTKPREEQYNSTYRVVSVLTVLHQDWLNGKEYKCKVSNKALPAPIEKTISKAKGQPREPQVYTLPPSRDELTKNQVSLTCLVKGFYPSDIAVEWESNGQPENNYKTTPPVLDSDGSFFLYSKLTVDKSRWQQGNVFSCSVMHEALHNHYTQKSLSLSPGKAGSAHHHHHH
The experiment in a line: SPR, CD3E+G-hFc immobilized, binder analyte. The protocol: To determine the affinity of the B7H6/CD3 binding protein to human and cyno CD3E+G-hFc, the experiment was performed on a Bio-Rad ProteOn™ XPR36 instrument. Briefly, HuCD3E+G-hFc and CyCD3E+G were amine-coupled on a ProteOn™ GLM sensor chip (Bio-Rad) and the B7H6/CD3 binding protein was flowed over the immobilized surface. The running buffer for this experiment and all serial dilutions were prepared in HBS-EP+. The GLM sensor chip was normalized according to Bio-Rad's recommendations. The sensor chip was activated with an equal mixture of EDC/s-NHS in the horizontal direction for 300 s at a flow rate of 30 μL/min HuCD3E+G-hFc was immobilized in the vertical direction at 0.4 μg/mL, 0.2 μg/mL and 0.1 μg/mL in 10 mM acetate pH 4.5 to L1, L2 and L3, respectively, for 300 s at a flow rate of 30 μL/min resulting in about 100 RU of HuCD3E+G-hFc on L1, 40 RU of HuCD3E+G-hFc on L2 and 0 RU of HuCD3E+G-hFc on L3. CyCD3E+G-hFc was immobilized in the vertical direction at 0.4 μg/mL, 0.2 μg/mL and 0.1 μg/mL in 10 mM acetate pH 4.5 to L4, L5 and L6, respectively, for 300 s at a flow rate of 30 μL/min resulting in about 385 RU of […], 170 RU of CyCD3E+G-hFc on L5 and 50 RU of CyCD3E+G-hFc on L6. The sensor chip was deactivated with 1M ethanolamine-HCl in the horizontal direction for 300 s at a flow rate of 30 μL/min.
as §3
The interspot (interactions with sensor surface) and blank (HBS-EP+ or 0 nM analyte) were subtracted from the raw data.
In general terms: SPR reads the build-up and loss of mass on a sensor chip optically.

In assay [3] the target is T1, Cyno B7H6-His. The experiment in a line: SPR, binder captured on Protein A/G, B7H6 analyte. The protocol: (§6) To determine the affinity of human and cyno B7H6 and human B7H1 to B7H6/CD3 binding proteins, the experiment was performed on a Biacore™ 8K instrument (GE Healthcare Life Sciences). Briefly, the B7H6/CD3 binding protein was captured via Protein A/G. The running buffer for this experiment and all serial dilutions were prepared in HBS-EP+. The CM5 sensor chip was activated with an equal mixture of EDC/NHS across both flow cells for 420 s at a flow rate of 10 μL/min and immobilized with recombinant Protein A/G (50 μg/ml in 10 mM NaOAc, pH 4.5) across all flow cells for 420 s at a flow rate of 10 μL/min resulting in about 2500 RU of Protein A/G on the surface. The sensor chip was deactivated with 1M ethanolamine-HCl across all flow cells for 420 s at a flow rate of 10 μL/min.
as §1, §2

In another assay the target is T4, Human B7H1 (human, UniProt Q9NZQ7 20-239).
T4 construct: also called HuB7H1; huB7-H1
T4 sequence (Q9NZQ7 other isoform, or with tags, fused parts or gaps limits assumed): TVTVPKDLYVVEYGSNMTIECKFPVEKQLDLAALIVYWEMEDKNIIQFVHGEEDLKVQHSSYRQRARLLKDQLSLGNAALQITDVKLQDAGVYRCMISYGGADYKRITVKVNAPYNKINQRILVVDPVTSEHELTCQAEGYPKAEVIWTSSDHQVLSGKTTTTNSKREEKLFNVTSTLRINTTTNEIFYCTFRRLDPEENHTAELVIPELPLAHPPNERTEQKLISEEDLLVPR
Put plainly: SPR, binder captured on Protein A/G, HuB7H1 analyte. The protocol: as §6, §1, §2

For assay [4], the target named is T5, trypsin inhibitor from Glycine max soybean (Glycine max (soybean)).
T5 construct: unrelated negatively charged protein, amine-coupled to the chip
T5 sequence (P01070 25-205): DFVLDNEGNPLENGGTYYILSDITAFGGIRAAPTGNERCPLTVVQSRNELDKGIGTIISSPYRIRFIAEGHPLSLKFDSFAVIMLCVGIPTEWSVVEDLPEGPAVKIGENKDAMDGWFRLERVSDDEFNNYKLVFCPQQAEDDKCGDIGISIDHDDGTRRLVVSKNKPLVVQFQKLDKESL
The experiment in a line: SPR, 1 µM binder over immobilized trypsin inhibitor. The protocol: as §4, §5

B1: B7H6#17/CD3#1 (bispecific antibody, human IgG1, kappa, lambda, L234A L235A)
chain 1: DIQMTQSPSSLSASVGDRVTITCKASQNVGKYVAWYQQKPGKAPKSLIYSASNRYDGVPSRFSGSGSGTDFTLTISSLQPEDFTTYYCQQYISYPLTFGAGTKLEIKRTVAAPSVFIFPPSDEQLKSGTASVVCLLNNFYPREAKVQWKVDNALQSGNSQESVTEQDSKDSTYSLSSTLTLSKADYEKHKVYACEVTHQGLSSPVTKSFNRGECGGGGSEGKSSGSGSESKSTEGKSSGSGSESKSTGGGGSQVQLVQSGAEVKKPGASVKVSCKASGYTFTSYWMNWMRQAPGQGLEWMGGIYLSGDSTDYNEKFKGRVTMTVDTSTSTVYMELSSLRSEDTAVYYCTRRGDYFGDFWGQGTLVTVSSASTKGPSVFPLAPSSKSTSGGTAALGCLVKDYFPEPVTVSWNSGALTSGVHTFPAVLQSSGLYSLSSVVTVPSSSLGTQTYICNVNHKPSNTKVDKRVEPKSCDKTHTCPPCPAPEAAGGPSVFLFPPKPKDTLMISRTPEVTCVVVDVSHEDPEVKFNWYVDGVEVHNAKTKPREEQYNSTYRVVSVLTVLHQDWLNGKEYKCKVSNKALPAPIEKTISKAKGQPREPQVYTLPPSREEMTKNQVSLWCLVKGFYPSDIAVEWESNGQPENNYKTTPPVLDSDGSFFLYSKLTVDKSRWQQGNVFSCSVMHEALHNHYTQKSLSLSPG
chain 2: EAVVTQEPSLTVSPGGTVTLTCRSSTGAVTTSNYANWVQEKPGQLPRGLIGGTNKRAPWVPARFSGSLLGGKAALTLSGAQPEDEAEYFCALWYSNLWVFGGGTKLTVLGQPKAAPSVTLFPPSSEELQANKATLVCLISDFYPGAVKVAWKADGSPVNTGVETTTPSKQSNNKYAASSYLSLTPEQWKSHRSYSCQVTHEGSTVEKTVAPAECSGGGGSEGKSSGSGSESKSTEGKSSGSGSESKSTGGGGSEVQLVESGGGLVQPGGSLKLSCAASGFTFNTYAMNWVRQAPGKGLEWVARIRSKYNNYATYYADSVKDRFTISRDDSKNTAYLQMNNLKTEDTAVYYCVRHGNFGNSYVSWFAYWGQGTLVTVSAASTKGPSVFPLAPSSKSTSGGTAALGCLVKDYFPEPVTVSWNSGALTSGVHTFPAVLQSSGLYSLSSVVTVPSSSLGTQTYICNVNHKPSNTKVDKRVEPKSCDKTHTCPPCPAPEAAGGPSVFLFPPKPKDTLMISRTPEVTCVVVDVSHEDPEVKFNWYVDGVEVHNAKTKPREEQYNSTYRVVSVLTVLHQDWLNGKEYKCKVSNKALPAPIEKTISKAKGQPREPQVYTLPPSREEMTKNQVSLSCAVKGFYPSDIAVEWESNGQPENNYKTTPPVLDSDGSFFLVSKLTVDKSRWQQGNVFSCSVMHEALHNRFTQKSLSLSPG
notes: scFab-Fc heterodimer, one B7H6 chain and one CD3 chain
The term Kd denotes a measure of binding affinity in units of concentration. Low values mean tighter binding, high ones weaker binding. Consider B1, for which the “cy/hu B7-H6” value with Cyno B7H6-His [1] was found to be 1. Moreover, the “Non-specific binding (RU)” value in assay [2] stood at 15.3 RU; in assay [4], 88.4 RU. Further, the equilibrium dissociation constant (Kd) in the assay with Human CD3 E+G HuFc-6xHis came to 13.5 nM; with Cyno B7H6-His [3], 8.4 nM. In the assay with Human B7H1, the binding result was “no binding (tested: 1 µM)”.

B2: B7H6#12/CD3#1 (bispecific antibody, human IgG1, kappa, lambda, L234A L235A)
chain 1: DIQMTQSPSSLSASVGDRVTITCKASQNVGKYVAWYQQKPGKAPKSLIYSASNRYDGVPSRFSGSGSGTDFTLTISSLQPEDFTTYYCQQYISYPLTFGAGTKLEIKRTVAAPSVFIFPPSDEQLKSGTASVVCLLNNFYPREAKVQWKVDNALQSGNSQESVTEQDSKDSTYSLSSTLTLSKADYEKHKVYACEVTHQGLSSPVTKSFNRGECGGGGSEGKSSGSGSESKSTEGKSSGSGSESKSTGGGGSQVQLVQSGAEVKKPGASVKVSCKASGYTFTNYWMNWVKQAPGQGLEWMGGIYLNGDSTDYNEKFKGKATMTVDTSTSTVYMELSSLRSEDTAVYYCTRRGDYFGDFWGQGTLVTVSSASTKGPSVFPLAPSSKSTSGGTAALGCLVKDYFPEPVTVSWNSGALTSGVHTFPAVLQSSGLYSLSSVVTVPSSSLGTQTYICNVNHKPSNTKVDKRVEPKSCDKTHTCPPCPAPEAAGGPSVFLFPPKPKDTLMISRTPEVTCVVVDVSHEDPEVKFNWYVDGVEVHNAKTKPREEQYNSTYRVVSVLTVLHQDWLNGKEYKCKVSNKALPAPIEKTISKAKGQPREPQVYTLPPSREEMTKNQVSLWCLVKGFYPSDIAVEWESNGQPENNYKTTPPVLDSDGSFFLYSKLTVDKSRWQQGNVFSCSVMHEALHNHYTQKSLSLSPG
chain 2: EAVVTQEPSLTVSPGGTVTLTCRSSTGAVTTSNYANWVQEKPGQLPRGLIGGTNKRAPWVPARFSGSLLGGKAALTLSGAQPEDEAEYFCALWYSNLWVFGGGTKLTVLGQPKAAPSVTLFPPSSEELQANKATLVCLISDFYPGAVKVAWKADGSPVNTGVETTTPSKQSNNKYAASSYLSLTPEQWKSHRSYSCQVTHEGSTVEKTVAPAECSGGGGSEGKSSGSGSESKSTEGKSSGSGSESKSTGGGGSEVQLVESGGGLVQPGGSLKLSCAASGFTFNTYAMNWVRQAPGKGLEWVARIRSKYNNYATYYADSVKDRFTISRDDSKNTAYLQMNNLKTEDTAVYYCVRHGNFGNSYVSWFAYWGQGTLVTVSAASTKGPSVFPLAPSSKSTSGGTAALGCLVKDYFPEPVTVSWNSGALTSGVHTFPAVLQSSGLYSLSSVVTVPSSSLGTQTYICNVNHKPSNTKVDKRVEPKSCDKTHTCPPCPAPEAAGGPSVFLFPPKPKDTLMISRTPEVTCVVVDVSHEDPEVKFNWYVDGVEVHNAKTKPREEQYNSTYRVVSVLTVLHQDWLNGKEYKCKVSNKALPAPIEKTISKAKGQPREPQVYTLPPSREEMTKNQVSLSCAVKGFYPSDIAVEWESNGQPENNYKTTPPVLDSDGSFFLVSKLTVDKSRWQQGNVFSCSVMHEALHNRFTQKSLSLSPG
notes: as for B1
As to B2, in the assay with Cyno B7H6-His [1], the “cy/hu B7-H6” value was found to be 2.1. Moreover, the “Non-specific binding (RU)” value is 9.2 RU in assay [2] and 35.4 RU in assay [4]. In addition, the Kd with Human CD3 E+G HuFc-6xHis turned out to be 3.6 nM; with Cyno B7H6-His [3] it was 2.3 nM. In addition, in the assay with Human B7H1, the binding result is “no binding (tested: 1 µM)”.
